Reference: article PMC517823 (2004)
Where a chain is given by its changes, count along the chain named. Read-outs that look alike come from different tables or passages of the source.

T1: Ffh (UniProt P0AGD7 1-453)
T1 chain: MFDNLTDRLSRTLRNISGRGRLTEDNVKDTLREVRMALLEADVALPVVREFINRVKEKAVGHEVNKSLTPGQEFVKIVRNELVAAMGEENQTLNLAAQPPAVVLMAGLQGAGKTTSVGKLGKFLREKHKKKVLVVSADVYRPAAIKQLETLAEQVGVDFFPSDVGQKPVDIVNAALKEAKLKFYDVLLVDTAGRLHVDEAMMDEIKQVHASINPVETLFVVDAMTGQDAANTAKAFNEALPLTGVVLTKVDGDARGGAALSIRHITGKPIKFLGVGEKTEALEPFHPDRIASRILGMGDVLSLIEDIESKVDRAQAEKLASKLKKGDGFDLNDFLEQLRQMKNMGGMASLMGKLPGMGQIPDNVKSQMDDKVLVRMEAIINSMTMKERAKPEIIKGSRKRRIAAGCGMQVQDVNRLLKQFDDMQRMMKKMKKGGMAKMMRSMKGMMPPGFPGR

B1: FtsY T307(112)A (domain or fragment)
chain: ASEQAVEEQPQAHTEAEAETFAADVVEVTEQVAESEKAQPEAEVVAQPEPVVEETPEPVAIEREELPLPEDVNAEAVSPEEWQAEAETVEIVEAAEEEAAKEEITDEELETALAAEAAEEAVMVVPPAEEEQPVEEIAQEQEKPTKEGFFARLKRSLLKTKENLGSGFISLFRGKKIDDDLFEELEEQLLIADVGVETTRKIITNLTEGASRKQLRDAEALYGLLKEEMGEILAKVDEPLNVEGKAPFVILMVGVNGVGKATTIGKLARQFEQQGKSVMLAAGDTFRAAAVEQLQVWGQRNNIPVIAQHTGADSASVIFDAIQAAKARNIDVLIADTAGRLQNKSHLMEELKKIVRVMKKLDVEAPHEVMLTIDASTGQNAVSQAKLFHEAVGLTGITLTKLDGTAKGGVIFSVADQFGIPIRYIGVGERIEDLRPFKADDFIEALFARED
B2: FtsY R333(138)A (domain or fragment)
chain: B1 chain with A261T, R287A
B3: FtsY G454(253)W (protein)
chain: B1 chain with A261T, G408W

Experiments:
Ffh [1] = target: T1, Ffh; experiment: GTP; inhibition assay
Ffh [2] = target: T1, Ffh; experiment: GTP; inhibition assay

Binder | Ki (Ffh [1]) | Ki (Ffh [2])
B1 | 5.5 µM | 7.1 µM
B2 | – | 0.24 µM
B3 | – | 4.2 µM
